Reference: patent US5958954, “Synthesis and use of retinoid compounds having negative hormone and/or antagonist activities” (Allergan Sales, Inc.)

Tests used:
RAR-alpha = molecular target: T1, RAR-alpha (UniProt P10276 P10276:1-462); experiment: EMSA; RAR alone did not produce the receptor-specific shift; conditions: tags: TNT reticulocyte lysate from pGEM3Z RAR-alpha cDNA; label: end-labeled
T1 sequence: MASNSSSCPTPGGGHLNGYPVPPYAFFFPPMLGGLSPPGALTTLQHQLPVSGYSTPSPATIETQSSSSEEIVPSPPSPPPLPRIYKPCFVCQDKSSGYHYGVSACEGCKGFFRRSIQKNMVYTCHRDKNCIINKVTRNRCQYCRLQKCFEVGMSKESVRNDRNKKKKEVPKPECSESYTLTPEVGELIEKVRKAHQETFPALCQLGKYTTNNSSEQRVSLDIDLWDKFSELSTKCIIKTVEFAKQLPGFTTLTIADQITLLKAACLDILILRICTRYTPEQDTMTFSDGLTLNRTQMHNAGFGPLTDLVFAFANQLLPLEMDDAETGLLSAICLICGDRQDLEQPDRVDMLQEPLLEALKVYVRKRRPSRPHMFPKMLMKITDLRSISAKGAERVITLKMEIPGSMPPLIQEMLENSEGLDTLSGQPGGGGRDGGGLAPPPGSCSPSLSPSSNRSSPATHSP
Excerpt: (§1) In vitro translated RAR-α was produced essentially as described under Example 8, except that ^35S-labeled methoinine was omitted. In vitro translated RXR-α was similarly produced using a pBluescript(II)(SK)-based vector containing the RXR-α cDNA described by Mangelsdorf, et al. in *Nature* 345:224–229 (1990) as the template for generating in vitro transcripts. The labeled RAR-α and RXR-α, alone or in combination, or prebound with AGN 193109 (10^-6M) either alone or in combination, were allowed to interact with an end-labeled DR-5 RARE double-stranded probe having the sequence 5'-[…]-3' (SEQ ID NO:1). The binding mixture was electrophoresed on a non-denaturing polyacrylamide gel and autoradiographed according to standard laboratory procedures. A single retarded species appearing on the autoradiograph that was common to all the lanes on the gel represented an undefined probe-binding factor present in the reticulocyte lysate. Only the RAR/RXR combination gave rise to a retinoid receptor-specific retarded species. Neither RAR alone nor RXR alone bound the probe to produce this shifted species.

RXR-alpha = RXR-alpha (UniProt P19793 P19793:1-462); experiment: EMSA; RXR alone did not produce the receptor-specific shift; conditions: tags: reticulocyte lysate from pBluescript(II)(SK) RXR-alpha cDNA; label: end-labeled
Sequence of RXR-alpha (P19793 whole entry, one chain of several): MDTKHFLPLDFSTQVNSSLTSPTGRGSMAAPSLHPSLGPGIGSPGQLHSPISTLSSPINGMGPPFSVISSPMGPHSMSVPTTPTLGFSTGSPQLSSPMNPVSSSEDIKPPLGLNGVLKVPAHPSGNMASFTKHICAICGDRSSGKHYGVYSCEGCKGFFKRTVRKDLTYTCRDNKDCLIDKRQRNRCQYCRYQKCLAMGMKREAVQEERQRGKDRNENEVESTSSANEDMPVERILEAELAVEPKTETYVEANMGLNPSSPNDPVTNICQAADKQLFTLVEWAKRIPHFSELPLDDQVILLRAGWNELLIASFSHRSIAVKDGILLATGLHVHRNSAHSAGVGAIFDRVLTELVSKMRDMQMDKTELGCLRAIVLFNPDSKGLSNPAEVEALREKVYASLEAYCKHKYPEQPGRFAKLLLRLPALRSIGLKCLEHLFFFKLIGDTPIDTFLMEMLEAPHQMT
Excerpt: as §1

B1: DR-5 RARE probe (dsDNA)
DNA 1: TCAGGTCACCAGGAGGTCAGA
DNA 2: TCTGACCTCCTGGTGACCTGA
binding result (RAR-alpha): no binding | binding result (RXR-alpha): no binding
